Measured values from US20110244498.

Test system: non-phosphorylated pKID-Abl

Abl tyrosine kinase (New England Biolabs)
conversion of non-phosphorylated pKID-Abl to phosphorylated pKID-Abl (analytical HPLC, 30 min at 37 C, 300 units Abl): 62% conversion of non-phosphorylated pKID-Abl to phosphorylated pKID-Abl in the absence of Gleevec
conversion of non-phosphorylated pKID-Abl to phosphorylated pKID-Abl in the presence of 50 µM Gleevec (analytical HPLC): less than 5% conversion was observed in the presence of Gleevec
terbium luminescence after incubation with kinase: resulted in a significant increase in terbium luminescence
